Measured values from article PMC5118228 (EJNMMI Research, 2016).
“And” between values parts separate entries of the source, which are not always exact repeats. Identical values can stand only once.

Legend:
[1] = system: kidney; test: Renal dose-effect relation (logistic regression, LD50); type: in vivo, mice; conditions: death before 90 days
Method: (§1) Dosimetry was performed according to the MIRD schema by using the spherical nodes S-factors from the Olinda/EXM software. S-factors were interpolated from the actual weight of the organs and tissue. All organs and tissue were assumed to be spherical with a density of […]. Mean radiation absorbed doses were obtained as a function-injected mass of peptide, assuming a homogeneous distribution in the tumor and organs. […] Owing to the short path length of α-particles, only the self-dose within each organ was included. The threshold for lethality was determined with renal absorbed dose and injected activity as indicators. Logistic regression analysis was used to determine the LD50 for presumed renal toxicity-related death.
Data analyses, graphs, and calculations were performed in Prism-5. Mann-Whitney t test was used to calculate the significance. The results of statistical tests were considered significant when P was <0.05. Biodistribution data were expressed as mean ± standard deviation (SD) and tumor volume data as mean ± standard error (SEM). Binary logistic analysis (forced entry method) was performed with SPSS software (IBM SPSS statistics, version 20).

[2] = system: tumor and normal organs of mice; test: Radiation dosimetry (MIRD schema, Olinda/EXM spherical S-factors); type: in vivo; conditions: for mean radiation absorbed tumor dose: predicted from ^111In-DOTATATE tumor uptake, AR42J tumor-bearing mice; for mean radiation absorbed dose for femur: high-dose cohort
Method: Saturation of receptor-specific tumor uptake was investigated by determining the kinetics of the tumor uptake with increasing injected mass of peptide. The time-activity curves for the tumor and normal organs were fitted by single-exponential functions using Prism-5 (GraphPad). Goodness of fit was analyzed with the Pearson correlation coefficient R ^2 > 0.8. Both F test and the Aikake information criterion were used to decide on the complexity of the curves.
as §1

[3] = with L-lysine (35 mg), tumor-bearing mice, calculated

SMILES: C[C@@H](O)[C@H](NC(=O)[C@@H]1CSSC[C@H](NC(=O)[C@@H](Cc2ccccc2)NC(=O)CN2CCN(CC(=O)O)CCN(CC(=O)O)CCN(CC(=O)O)CC2)C(=O)N[C@@H](Cc2ccc(O)cc2)C(=O)N[C@H](Cc2c[nH]c3ccccc23)C(=O)N[C@@H](CCCCN)C(=O)N[C@@H]([C@@H](C)O)C(=O)N1)C(=O)O [^213Bi-DOTATATE, metal not drawn]
- threshold LD5 kidney dose [1]: 11 ± 4 Gy
- LD50 mean renal radiation absorbed dose ([1]; mice with and without L-lysine): 20 Gy and 20 ± 8 Gy
- mean radiation absorbed tumor dose ([2]; 0.1 nmol peptide): approximately 0.5 Gy/MBq
- mean radiation absorbed tumor dose ([2]; 0.3 nmol peptide): approximately 0.5 Gy/MBq
- mean radiation absorbed dose for femur ([2]; with pre-treatment of L-lysine): 1.3 Gy
- mean radiation absorbed dose for femur ([2]; without L-lysine): 1.0 Gy
- mean renal absorbed dose ([2]; high-dose(+) cohort, 28.3 ± 0.8 MBq): 16 Gy
- time-integrated activity coefficient in the kidney ([2]; mice pre-treated with L-lysine): 6.0 ± 2.4 min/g
- time-integrated activity coefficient in the kidney ([2]; mice without pre-treatment of L-lysine): 12.0 ± 3.7 min/g
- renal absorbed dose ([2]; nontumor-bearing animals, with L-lysine): 0.50 Gy/MBq
- renal absorbed dose ([2]; nontumor-bearing animals, without L-lysine): 1.0 Gy/MBq
- renal absorbed dose ([2]; tumor-bearing animals, with L-lysine): 0.56 Gy/MBq
- renal absorbed dose ([2]; tumor-bearing animals, without L-lysine): 1.1 Gy/MBq
- Radiation absorbed dose per administered activity, Adrenals, Total α [2, 3]: 5.60E-02 Gy/MBq
- Radiation absorbed dose per administered activity, Adrenals, Total β [2, 3]: 2.00E-03 Gy/MBq
- Radiation absorbed dose per administered activity, Adrenals, ^209Pb β [2, 3]: 1.30E-04 Gy/MBq
- Radiation absorbed dose per administered activity, Adrenals, ^209Tl β + γ [2, 3]: 4.00E-05 Gy/MBq
- Radiation absorbed dose per administered activity, Adrenals, ^213Bi α [2, 3]: 8.00E-04 Gy/MBq
- Radiation absorbed dose per administered activity, Adrenals, ^213Bi β [2, 3]: 1.80E-03 Gy/MBq
- Radiation absorbed dose per administered activity, Adrenals, ^213Po α [2, 3]: 5.49E-02 Gy/MBq
- Radiation absorbed dose per administered activity, Blood, Total α [2, 3]: 1.09E-01 Gy/MBq
- Radiation absorbed dose per administered activity, Blood, Total β [2, 3]: 6.00E-03 Gy/MBq
- Radiation absorbed dose per administered activity, Blood, ^209Pb β [2, 3]: 2.00E-04 Gy/MBq
- Radiation absorbed dose per administered activity, Blood, ^209Tl β + γ [2, 3]: 1.40E-04 Gy/MBq
- Radiation absorbed dose per administered activity, Blood, ^213Bi α [2, 3]: 1.60E-03 Gy/MBq
- Radiation absorbed dose per administered activity, Blood, ^213Bi β [2, 3]: 5.20E-03 Gy/MBq
- Radiation absorbed dose per administered activity, Femur, Total α [2, 3]: 4.20E-02 Gy/MBq
- Radiation absorbed dose per administered activity, Femur, Total β [2, 3]: 2.00E-03 Gy/MBq
- Radiation absorbed dose per administered activity, Femur, ^209Pb β [2, 3]: 1.00E-04 Gy/MBq
- Radiation absorbed dose per administered activity, Femur, ^209Tl β + γ [2, 3]: 4.00E-05 Gy/MBq
- Radiation absorbed dose per administered activity, Femur, ^213Bi α [2, 3]: 6.00E-04 Gy/MBq
- Radiation absorbed dose per administered activity, Femur, ^213Bi β [2, 3]: 1.60E-03 Gy/MBq
- Radiation absorbed dose per administered activity, Femur, ^213Po α [2, 3]: 4.13E-02 Gy/MBq
- Radiation absorbed dose per administered activity, Kidney, Total α [2, 3]: 5.33E-01 Gy/MBq
- Radiation absorbed dose per administered activity, Kidney, Total β [2, 3]: 2.60E-02 Gy/MBq
- Radiation absorbed dose per administered activity, Kidney, ^209Pb β [2, 3]: 1.40E-03 Gy/MBq
- Radiation absorbed dose per administered activity, Kidney, ^209Tl β + γ [2, 3]: 6.30E-04 Gy/MBq
- Radiation absorbed dose per administered activity, Kidney, ^213Bi α [2, 3]: 8.00E-03 Gy/MBq
- Radiation absorbed dose per administered activity, Kidney, ^213Bi β [2, 3]: 2.37E-02 Gy/MBq
- Radiation absorbed dose per administered activity, Kidney, ^213Po α [2, 3]: 5.25E-01 Gy/MBq
- Radiation absorbed dose per administered activity, Pancreas, Total α [2, 3]: 1.36E-01 Gy/MBq
- Radiation absorbed dose per administered activity, Pancreas, Total β [2, 3]: 5.00E-03 Gy/MBq
- Radiation absorbed dose per administered activity, Pancreas, ^209Pb β [2, 3]: 8.90E-04 Gy/MBq
- Radiation absorbed dose per administered activity, Pancreas, ^209Tl β + γ [2, 3]: 1.00E-04 Gy/MBq
- Radiation absorbed dose per administered activity, Pancreas, ^213Bi α [2, 3]: 2.00E-03 Gy/MBq
- Radiation absorbed dose per administered activity, Pancreas, ^213Bi β [2, 3]: 4.50E-03 Gy/MBq
- Radiation absorbed dose per administered activity, Pancreas, ^213Po α [2, 3]: 1.34E-01 Gy/MBq
- Radiation absorbed dose per administered activity, Stomach, Total α [2, 3]: 6.10E-02 Gy/MBq
- Radiation absorbed dose per administered activity, Stomach, Total β [2, 3]: 3.00E-03 Gy/MBq
- Radiation absorbed dose per administered activity, Stomach, ^209Pb β [2, 3]: 2.20E-04 Gy/MBq
- Radiation absorbed dose per administered activity, Stomach, ^209Tl β + γ [2, 3]: 7.00E-05 Gy/MBq
- Radiation absorbed dose per administered activity, Stomach, ^213Bi α [2, 3]: 9.00E-04 Gy/MBq
- Radiation absorbed dose per administered activity, Stomach, ^213Bi β [2, 3]: 2.60E-03 Gy/MBq
- Radiation absorbed dose per administered activity, Stomach, ^213Po α [2, 3]: 6.00E-02 Gy/MBq
- Radiation absorbed dose per administered activity, Tumor, Total α [2, 3]: 6.14E-01 Gy/MBq
- Radiation absorbed dose per administered activity, Tumor, Total β [2, 3]: 4.40E-02 Gy/MBq
